Experimental data taken from patent US20210024639A1 (AGOMAB THERAPEUTICS, published 2021).

Legend:
[1] = target: T1, native human MET on living human cells (human, UniProt P08581 25-1390); assay: flow cytometry, A549 cells
T1 construct: whole, on cells; also called Human cells (A549); HPAF-II
Summary of the method: (§1)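 PE fluorescence read-out: living cells stained with chimeric anti-MET antibodies, then PE-conjugated anti-human IgG1 secondary, analysed by flow cytometry. Values expressed as maximal binding (EMAX).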

[2] = target: T1, native human MET on living human cells; assay: cell-based or functional assay
[3] = target: T2, native mouse MET on living mouse cells (mouse, UniProt P16056 25-1379); assay: cell-based or functional assay
[4] = target: T3, human MET-Fc chimeric protein (R&D Systems) (human, UniProt P08581 25-932); assay: competition ELISA, hMET-Fc in solid phase, competitor 0.3 nM biotinylated hHGF
T3 construct: extracellular domain; bought (R&D Systems); also called hMET; not shown: Fc portion of human IgG1
Summary of the method: (§2)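 An ELISA format measured how well mAbs (0-120 nM) displaced N-terminus-biotinylated HGF from plate-bound receptor. Results are given as the concentration producing 50% competition and as IMAX, the saturating maximum percentage.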

[5] = target: T1, native human MET on living human cells; assay: cell-based or functional assay; remark: listed apart in the source
[6] = target: T2, native mouse MET on living mouse cells; assay: cell-based or functional assay; remark: listed apart in the source
[7] = target: human MET ECD mutant I (mutations 6, 7, 8) (human) (UniProt P08581); assay: ELISA, MET ECD mutant in solid phase, mAb 0-50 nM
[8] = target: human MET ECD mutant J (mutations 6, 7) (human) (UniProt P08581); assay: ELISA, MET ECD mutant in solid phase, mAb 0-50 nM
[9] = target: T2, native mouse MET on living mouse cells; assay: flow cytometry, MLP29 cells
Summary of the method: as §1

[10] = target: T4, mouse MET-Fc chimeric protein (R&D Systems) (mouse, UniProt P16056 25-929, limits assumed); assay: competition ELISA, mMET-Fc in solid phase, competitor 0.3 nM biotinylated mHGF
T4 construct: bought (R&D Systems); also called mMET; not shown: Fc
Summary of the method: as §2

B1: chimeric llama-human IgG1 mAb 71G3 (antibody, V domains shown)
VH: QVQLVESGGGLVQPGGSLRVSCAASGFTFSTYYMSWVRQAPGKGLEWVSDIRTDGGTYYADSVKGRFTMSRDNAKNTLYLQMNSLKPEDTALYYCARTRIFPSGYDYWGQGTQVTVSS
VL: QAVVTQEPSLSVSPGGTVTLTCGLSSGSVTTSNYPGWFQQTPGQAPRTLIYNTNSRHSGVPSRFSGSISGNKAALTIMGAQPEDEADYYCSLYPGSTTVFGGGTHLTVL
[1]
  EMAX (% relative to control): 117%
[2]
  protection from staurosporine, viability EC50, MCF10A: 5.04 nM
  protection from staurosporine, viability EMAX, MCF10A: 65.2%
[3]
  protection from staurosporine, viability EC50, MLP29: 4.85 nM
  protection from staurosporine, viability EMAX, MLP29: 62.3%
[4]
  IMAX (maximum % competition): 63.2%
[5]
  cell scattering score, HPAF-II, 0.001 nM: 0 score 0-4
  cell scattering score, HPAF-II, 0.004 nM: 0 score 0-4
  cell scattering score, HPAF-II, 0.012 nM: 1 score 0-4
  cell scattering score, HPAF-II, 0.037 nM: 2 score 0-4
  cell scattering score, HPAF-II, 0.111 nM: 3 score 0-4
  cell scattering score, HPAF-II, 0.333 nM: 4 score 0-4
  cell scattering score, HPAF-II, 1.000 nM: 4 score 0-4
  cell scattering score, HPAF-II, 3.000 nM: 4 score 0-4
  cell scattering score, HPAF-II, 9.000 nM: 4 score 0-4
[6]
  cell scattering score, MLP29, 0.001 nM: 0 score 0-4
  cell scattering score, MLP29, 0.004 nM: 0 score 0-4
  cell scattering score, MLP29, 0.012 nM: 0 score 0-4
  cell scattering score, MLP29, 0.037 nM: 1 score 0-4
  cell scattering score, MLP29, 0.111 nM: 2 score 0-4
  cell scattering score, MLP29, 0.333 nM: 4 score 0-4
  cell scattering score, MLP29, 1.000 nM: 4 score 0-4
  cell scattering score, MLP29, 3.000 nM: 4 score 0-4
  cell scattering score, MLP29, 9.000 nM: 4 score 0-4
[7]
  % binding (EMAX) compared to WT MET: 100%
[8]
  % binding (EMAX) compared to WT MET: 91.2%
[9]
  EMAX (% relative to control): 116%
[10]
  IMAX (maximum % competition): 62.9%
